Results as given in patent US20240309070A1 (ADMARE THERAPEUTICS SOCIETY, published 2024).
Substitutions are numbered along the chain they refer to.

B1: A048 parental (antibody, V domains shown)
VH: QEQLEESGGGLVKPEGSLTLTCTASGFSFSSSYYMCWVRQAPGRGLEWIACIYTSSGSAYYANWAKGRFTISRTSSTTVTLQMTRLTAADTATYFCVRNAVGSSYYLYLWGPGTLVTVSS
VL: AQVLTQTPSPVSAAVGGTVTISCQASQSVAGNNYLSWYQQKPGQPPNLLIYSVSTLASGVPSRFKGSGSGTQFTLTISDLECDDAATYYCQGYYNDGIWAFGGGTEVVVK
notes: also called A048 rabbit parental antibody; A048 parental anti-B5 hIgG1
B2: A048-H3L1 (antibody, V domains shown)
VH: EVQLLESGGGLVQPGGSLRLSCAASGFSFSSSYYMCWVRQAPGKGLEWIACIYTSSGSAYYADSVKGRFTISRDNSKNTLYLQMNSLRAEDTAVYYCVRNAVGSSYYLYLWGQGTLVTVSS
VL: DIQMTQSPSTLSASVGDRVTITCQASQSVAGNNYLSWYQQKPGKAPKLLIYSVSTLASGVPSRFSGSGSGTEFTLTISSLQPDDFATYYCQGYYNDGIWAFGQGTKVEIK
B3: A048-H1L1 (antibody, V domains shown)
VH: B2 VH with D63N, S64W, V65A
VL: B2 VL
B4: A048-H2L1 (antibody, V domains shown)
VH: EVQLLESGGGLVQPGGSLRLSCAASGFSFSSSYYMCWVRQAPGKGLEWIACIYTSSGSAYYANWAKGRFTISRTSSTTVTLQMNSLRAEDTAVYYCVRNAVGSSYYLYLWGQGTLVTVSS
VL: B2 VL
B5: A048-H4L1 (antibody, V domains shown)
VH: B4 VH with N63D, W64S, A65V
VL: B2 VL
B6: A048-H3L4 (antibody, V domains shown)
VH: B2 VH
VL: B2 VL with D1A, I2Q, Q3V, M4L, T10S, A45V, E72D, D83E, F85V
B7: A048-H2L4 (antibody, V domains shown)
VH: B4 VH
VL: B2 VL with D1A, I2Q, Q3V, M4L, T10S, A45V, E72D, D83E, F85V
B8: A048-H2L2 (antibody, V domains shown)
VH: B4 VH
VL: B2 VL with D1A, I2Q, Q3V, M4L
B9: A048-H1L2 (antibody, V domains shown)
VH: B2 VH with D63N, S64W, V65A
VL: B2 VL with D1A, I2Q, Q3V, M4L
B10: A048-H4L4 (antibody, V domains shown)
VH: B4 VH with N63D, W64S, A65V
VL: B2 VL with D1A, I2Q, Q3V, M4L, T10S, A45V, E72D, D83E, F85V
B11: A048-H1L4 (antibody, V domains shown)
VH: B2 VH with D63N, S64W, V65A
VL: B2 VL with D1A, I2Q, Q3V, M4L, T10S, A45V, E72D, D83E, F85V
B12: A048-H1L3 (antibody, V domains shown)
VH: B2 VH with D63N, S64W, V65A
VL: B2 VL with T10S, A45V, E72D, D83E, F85V
B13: A048-H3L3 (antibody, V domains shown)
VH: B2 VH
VL: B2 VL with T10S, A45V, E72D, D83E, F85V
B14: A048-H2L3 (antibody, V domains shown)
VH: B4 VH
VL: B2 VL with T10S, A45V, E72D, D83E, F85V
B15: A048-H4L2 (antibody, V domains shown)
VH: B4 VH with N63D, W64S, A65V
VL: B2 VL with D1A, I2Q, Q3V, M4L
B16: A048-H4L3 (antibody, V domains shown)
VH: B4 VH with N63D, W64S, A65V
VL: B2 VL with T10S, A45V, E72D, D83E, F85V
B17: A048-H3L2 (antibody, V domains shown)
VH: B2 VH
VL: B2 VL with D1A, I2Q, Q3V, M4L
B18: A048-H5L5 (antibody, V domains shown)
VH: QVTLKESGPVLVKPTETLTLTCTASGFSFSSSYYMCWVRQPPGKALEWIACIYTSSGSAYYANWAKGRFTISRDTSKSQVVLTMTNMDPVDTATYFCVRNAVGSSYYLYLWGQGTLVTVSS
VL: EQVLTQSPATLSLSPGERATLSCQASQSVAGNNYLSWYQQKPGQAPRLLIYSVSTLASGIPARFSGSGSGTDFTLTISSLEPEDFAVYYCQGYYNDGIWAFGQGTKLEIK

biological target: T1, VV B5 monomer protein (Wyeth Vaccinia strain B5 with C-terminal AVI tag and HIS6 tag) (Vaccinia virus, Wyeth strain, UniProt O57254 18-279); experiment: ELISA, B5 monomer coated
T1 construct: also called B5 protein; VV B5 protein

B1 and B2 are within 1.5-fold of each other in EC50: 0.116 nM for the first, 0.0854 nM for the second.

B3 and B4 are within 1.5-fold of each other in EC50: 0.0862 nM for the first, 0.0969 nM for the second.

B5 and B6 are within 1.5-fold of each other in EC50: 0.0953 nM for the first, 0.106 nM for the second.

B7 and B8 are within 1.5-fold of each other in EC50: 0.0844 nM for the first, 0.0914 nM for the second.

Going from B9 to B10, the EC50 rises from 0.0717 nM to 0.114 nM (1.6-fold).

B11 and B12 are within 1.5-fold of each other in EC50: 0.102 nM for the first, 0.0802 nM for the second.

Compared with B13, B14 is 1.9-fold lower in EC50: 0.0979 nM for the first, 0.0515 nM for the second.

B15 and B16 are within 1.5-fold of each other in EC50: 0.107 nM for the first, 0.114 nM for the second.

B17 and B18 are within 1.5-fold of each other in EC50: 0.0835 nM for the first, 0.104 nM for the second.

biological target: T2, Western Reserve B5 on cells infected with VVddeGFP Western Reserve virus (Vaccinia virus, Western Reserve strain, UniProt Q01227 18-317); experiment: flow cytometry, HT29 cells infected with WR VV
T2 construct: also called VV B5; WR

Going from B1 to B2, the EC50 falls from 3.51 nM to 0.86 nM (4.1-fold). The second is the more potent here.

B3 and B4 are within 1.5-fold of each other in EC50: 0.97 nM for the first, 1.37 nM for the second.

B5 and B6 are within 1.5-fold of each other in EC50: 2.77 nM for the first, 3.78 nM for the second.

B7 and B8 are within 1.5-fold of each other in EC50: 1.68 nM for the first, 1.71 nM for the second.

B9 and B10 are within 1.5-fold of each other in EC50: 2.2 nM for the first, 3.05 nM for the second.

First: B11
Second: B12
The EC50 of the first is 5.1-fold lower: 0.68 nM for the first, 3.48 nM for the second. The first is the more potent here.

B13 and B14 are within 1.5-fold of each other in EC50: 1.81 nM for the first, 1.73 nM for the second.

First: B15
Second: B16
The EC50 of the first is 1.9-fold higher: 6.59 nM for the first, 3.5 nM for the second. The second is the more potent here.

Compared with B17, B18 is 1.7-fold higher in EC50: 1.32 nM for the first, 2.28 nM for the second. The first is the more potent here.

biological target: T2, Western Reserve B5 on cells infected …; experiment: flow cytometry, SKOV3 cells infected with WR VV

First: B1
Second: B2
The EC50 of the first is 4.2-fold higher: 3.98 nM for the first, 0.94 nM for the second. The second is the more potent here.

Compared with B3, B4 is 1.9-fold lower in EC50: 1.03 nM for the first, 0.53 nM for the second. The second is the more potent here.

B5 and B6 are within 1.5-fold of each other in EC50: 0.88 nM for the first, 1.28 nM for the second.

B7 and B8 are within 1.5-fold of each other in EC50: 0.69 nM for the first, 0.8 nM for the second.

Going from B9 to B10, the EC50 rises from 0.76 nM to 2.36 nM (3.1-fold).

Going from B11 to B12, the EC50 rises from 0.44 nM to 1.2 nM (2.7-fold). The first is the more potent here.

Compared with B13, B14 is 1.5-fold lower in EC50: 0.83 nM for the first, 0.55 nM for the second.

Compared with B15, B16 is 1.9-fold higher in EC50: 0.71 nM for the first, 1.37 nM for the second. The first is the more potent here.

Going from B17 to B18, the EC50 rises from 0.67 nM to 1.36 nM (2-fold). The first is the more potent here.

biological target: T1, VV B5 monomer protein (Wyeth Vaccinia …); experiment: BLI (Octet), antibody on AHC sensor, B5 monomer analyte

B17 gave a Kd of 3 nM.

biological target: T3, Copenhagen B5 on cells infected with VVCopenhagen (YFP) virus (Vaccinia virus, Copenhagen strain, UniProt P21115 18-317); experiment: flow cytometry, HT29 cells infected with Copenhagen VV
T3 construct: also called VV B5

B1 and B2 are within 1.5-fold of each other in EC50: 1.08 nM for the first, 0.89 nM for the second.

Going from B3 to B4, the EC50 falls from 2.37 nM to 1.48 nM (1.6-fold). The second is the more potent here.

B5 and B6 are within 1.5-fold of each other in EC50: 1.34 nM for the first, 1.96 nM for the second.

Going from B7 to B8, the EC50 falls from 2.85 nM to 1.28 nM (2.2-fold).

First: B9
Second: B10
The EC50 of the first is 1.7-fold lower: 0.77 nM for the first, 1.32 nM for the second.

First: B11
Second: B12
The EC50 of the first is 1.9-fold lower: 0.98 nM for the first, 1.88 nM for the second. The first is the more potent here.

B13 and B14 are within 1.5-fold of each other in EC50: 1.03 nM for the first, 0.77 nM for the second.

Compared with B15, B16 is 1.6-fold lower in EC50: 1.78 nM for the first, 1.12 nM for the second. The second is the more potent here.

B17 and B18 are within 1.5-fold of each other in EC50: 1.87 nM for the first, 2.39 nM for the second.

biological target: T1, VV B5 monomer protein (Wyeth Vaccinia …); experiment: BLI (Octet), antibody on AHC sensor, B5 monomer analyte; remark: another data set of the same source

Going from B1 to B2, the Kd falls from 9.51 nM to 4.37 nM (2.2-fold).

B3 and B4 are within 1.5-fold of each other in Kd: 9.96 nM for the first, 7.21 nM for the second.

B5 and B6 are within 1.5-fold of each other in Kd: 6.72 nM for the first, 8.57 nM for the second.

B7 and B8 are within 1.5-fold of each other in Kd: 6.23 nM for the first, 7.91 nM for the second.

B9 and B10 are within 1.5-fold of each other in Kd: 9.71 nM for the first, 9.6 nM for the second.

B11 and B12 are within 1.5-fold of each other in Kd: 12 nM for the first, 8.76 nM for the second.

B13 and B14 are within 1.5-fold of each other in Kd: 7.71 nM for the first, 9.23 nM for the second.

B15 and B16 are within 1.5-fold of each other in Kd: 7.69 nM for the first, 6.31 nM for the second.

Compared with B17, B18 is 2.2-fold higher in Kd: 3.83 nM for the first, 8.55 nM for the second. The first binds more tightly here.

B1 and B2 are within 1.5-fold of each other in koff: 0.000601 s⁻¹ for the first, 0.000468 s⁻¹ for the second.

B3 and B4 are within 1.5-fold of each other in koff: 0.000763 s⁻¹ for the first, 0.000672 s⁻¹ for the second.

First: B5
Second: B6
The koff of the first is 1.5-fold lower: 0.000478 s⁻¹ for the first, 0.000722 s⁻¹ for the second.

B7 and B8 are within 1.5-fold of each other in koff: 0.000512 s⁻¹ for the first, 0.000698 s⁻¹ for the second.

B9 and B10 are within 1.5-fold of each other in koff: 0.000764 s⁻¹ for the first, 0.000549 s⁻¹ for the second.

B11 and B12 are within 1.5-fold of each other in koff: 0.000953 s⁻¹ for the first, 0.000846 s⁻¹ for the second.

B13 and B14 are within 1.5-fold of each other in koff: 0.000733 s⁻¹ for the first, 0.000759 s⁻¹ for the second.

B15 and B16 are within 1.5-fold of each other in koff: 0.000481 s⁻¹ for the first, 0.000476 s⁻¹ for the second.

B17 and B18 are within 1.5-fold of each other in koff: 0.000397 s⁻¹ for the first, 0.000521 s⁻¹ for the second.

First: B1
Second: B2
The kon of the first is 1.7-fold lower: 62400 M⁻¹ s⁻¹ for the first, 107000 M⁻¹ s⁻¹ for the second.

B3 and B4 are within 1.5-fold of each other in kon: 76600 M⁻¹ s⁻¹ for the first, 93000 M⁻¹ s⁻¹ for the second.

B5 and B6 are within 1.5-fold of each other in kon: 71000 M⁻¹ s⁻¹ for the first, 84100 M⁻¹ s⁻¹ for the second.

B7 and B8 are within 1.5-fold of each other in kon: 81600 M⁻¹ s⁻¹ for the first, 88100 M⁻¹ s⁻¹ for the second.

B9 and B10 are within 1.5-fold of each other in kon: 78600 M⁻¹ s⁻¹ for the first, 57000 M⁻¹ s⁻¹ for the second.

B11 and B12 are within 1.5-fold of each other in kon: 79400 M⁻¹ s⁻¹ for the first, 96400 M⁻¹ s⁻¹ for the second.

B13 and B14 are within 1.5-fold of each other in kon: 94900 M⁻¹ s⁻¹ for the first, 82100 M⁻¹ s⁻¹ for the second.

B15 and B16 are within 1.5-fold of each other in kon: 62400 M⁻¹ s⁻¹ for the first, 75200 M⁻¹ s⁻¹ for the second.

First: B17
Second: B18
The kon of the first is 1.7-fold higher: 103000 M⁻¹ s⁻¹ for the first, 60800 M⁻¹ s⁻¹ for the second.
